Results as given in the supplement of paper PMC9170038.

Test system: MS2 coat protein
Assay: apparent KD of MS2 coat protein; designed switch direction (-1 OFF switch, 1 ON switch): 1; higher = weaker reporter binding
Summary of the method: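 Designed RNA switches sharing common flanks were transcribed on Illumina chips by stalled E. coli RNA polymerase. They were titrated with SNAP-549-labelled MS2 coat protein, from 0.7 or 1.5 nM doubling to 3 µM, in Tris-HCl pH 7.5 buffer with KCl, MgCl2, BSA, DTT, tRNA and Tween-20. Titrations ran without input, with 200 uM small-molecule ligand, or with an oligonucleotide input. The apparent KD of each design is the median over its clusters, after curve-fitting of normalised cluster fluorescence.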

[1] = input ligand: microRNA oligo, concentration not stated
[2] = Eterna round: R95, input ligand: FMN 200 uM
[3] = Eterna round: R95, input ligand: microRNA oligo, concentration not stated
[4] = Eterna round: R95, input ligand: none

Sequence | apparent KD of MS2 coat protein (input ligand: FMN 200 uM) [nM] | apparent KD of MS2 coat protein [1] [nM] | apparent KD of MS2 coat protein (input ligand: none) [nM] | apparent KD of MS2 coat protein [2] [nM] | apparent KD of MS2 coat protein [3] [nM] | apparent KD of MS2 coat protein [4] [nM]
GCCGUAUACAUGAGGAUCACCCAUGUUGACGCGAGAGUGGAUGAGGAUAUCGAUGGGUUUCCCGUCGAGAAGGCGUGGGUCGGC [JL SSNG3 3.00] (Eterna round: R96, puzzle: Same State NG 3) | 49.8 | 30.5 | 46.1 | – | – | –
GCGAAACAUGAGGAUCACCCAUGUAUGGCGGGCACAGGAUAUCGUGGUUCGCUCAUACUACGAGAAGGGUGAAAAG [Orqu] (puzzle: Same State 1) | – | – | – | 24.1 | 18.4 | 16.9
GCGAAAGCGGUAGGAUAUCUAGGAUAUGGGAAAGACUAAGUCUGUAGGUCACCUAACCCAGAAGGAGAGAAGGACAGGGAAACC [pwkr ssNG2 2FMN + F9.34] (Eterna round: R96, puzzle: Same State NG 2) | 38.8 | 28.9 | 22.1 | – | – | –
GCGAAAUGAUGAAACAUGAGGAUCACCCAUGUAACGAGAGAUGAGGAUAUCGGAAAGGGAGGAACCGAGAAGGCAUGGUCACGC [AK SSNG3-V2-26.1] (Eterna round: R96, puzzle: Same State NG 3) | 34.5 | 37.1 | 48.2 | – | – | –
GCGAGCGUACUUGCAACAUGAGGAUCACCCAUGUUAACUGGACAGGAUAUGGUACCGUUUCGGUACCAGAAGGGUUCACUCAUG [JL SSNG3 3.59] (Eterna round: R96, puzzle: Same State NG 3) | – | 64.2 | – | – | – | –
GCGAGCGUACUUGCAGACAUGAGGAUCACCCAUGUAAAUGGGAAGGAUAUGGUACCGUUUCGGUACCAGAAGGUCCUAAGUGAG [JL SSNG3 1.49] (Eterna round: R96, puzzle: Same State NG 3) | 129 | 702 | 646 | – | – | –
GCGAGCGUACUUGCUACAUGAGGAUCACCCAUGUUAACUGGACAGGAUAUGGUACCGUUUCGGUACCAGAAGGGUUCAUCAUGU [JL SSNG3 3.68] (Eterna round: R96, puzzle: Same State NG 3) | 306 | 245 | 665 | – | – | –
GCGAGCGUACUUGCUACAUGAGGAUCACCCAUGUUUAUUGGACAGGAUAUGGUACCGUUUCGGUACCAGAAGGGUCCACAUGUG [JL SSNG3 3.86] (Eterna round: R96, puzzle: Same State NG 3) | 106 | 182 | 289 | – | – | –
GCGAGGAUAUGCAGAGGAUCACCCUGUAGAAGGCGCAAAAGCGAGGAUAUGCAGAGGAUCACCCUGUAGAAGGCGCACUACUCU [pwkr ssNG3 DX 2xF5 +2xFMN.4] (Eterna round: R96, puzzle: Same State NG 3) | 153 | 161 | 221 | – | – | –
GCGAUAUGAUGCUACAUGAGGAUCACCCAUGUAGCGACAGCUAAGGAUAUUGGAAAGGGAGGAGACGAGAAGGUAGGGUCACGC [AK SSNG3-V2-24.1] (Eterna round: R96, puzzle: Same State NG 3) | 11.5 | 11.6 | 17.2 | – | – | –
GCGCAGCUGCGCAAUAUUACAUGAGGAUCACCCAUGUUGUCACAGGAUAUGCUGGACAGCGUCGAGCAGAAGGGUGACCAAACA [Zasovexe] (Eterna round: R96, puzzle: Same State NG 3) | 191 | 97.2 | 300 | – | – | –
GCGGAACAUGAGGAUCACCCAUGUAAAGGGUGUAAAGGAUAUUAUUGGGAGAAGGUAGGGUAAGAAGGUUGCUUGG [JR_SS1_Sub088] (Eterna round: R96, puzzle: Same State 1) | – | 432 | – | – | – | –
GCGGAACAUGAGGAUCACCCAUGUAAAGGGUGUAAAGGAUAUUAUUGGGAGAAGGUAGGGUAAGAAGGUUGCUUGG [JR_SS1_Sub088] (puzzle: Same State 1) | – | – | – | 609 | 666 | 1240
GCGGUACCUAACAUGAGGAUCACCCAUGUUCCGGAAACGGCACAGGAUAUCUGUCCGAAAAGGUCAGAGAAGGGUGAAAUCCGC [Fiskers NG3ss - 93] (Eterna round: R96, puzzle: Same State NG 3) | 361 | 51.6 | 93.3 | – | – | –
GCUAGAAUAAAUGCUAACAUGAGGAUCACCCAUGUAUGUUGGCAGGAUAUCGUAUGCAAAGCAUACGAGAAGGGCCAUACUAGC [Mat - Same State NG 3 - JL Mod - D27] (Eterna round: R96, puzzle: Same State NG 3) | 17.3 | 20.4 | 29.5 | – | – | –
GCUAGAAUUAAUGCCUACAUGAGGAUCACCCAUGUAUGUAGGCAGGAUAUCGUUUGCAAAGCAAACGAGAAGGGCCUUACUAGC [Mat - Same State NG 3 - JL Mod - D28] (Eterna round: R96, puzzle: Same State NG 3) | 21.9 | 46.1 | 63.7 | – | – | –
GCUAGAAUUAAUGCCUACAUGAGGAUCACCCAUGUAUGUAGGCAGGAUAUCGUUUGCUUUGCAAACGAGAAGGGCCUUACUAGC [JL SSNG3 1.10] (Eterna round: R96, puzzle: Same State NG 3) | 18.9 | 50.8 | 77.3 | – | – | –
GCUAGGAUAUGACGAGGAUCACCCGUUAGAAGGAGCUUCGGCUAGGAUAUGACGAGGAUCACCCGUUAGAAGGAGCUGUACUCU [pwkr ssNG3 DX 2xF5 +2xFMN.9] (Eterna round: R96, puzzle: Same State NG 3) | 144 | 76.7 | 92.3 | – | – | –
GCUAGUAUUAUUGCUAACAUGAGGAUCACCCAUGUAUGUUGGCAGGAUAUCGUUUGCAAAGCAAACGAGAAGGGCUAAACUAGC [Mat - Same State NG 3 - JL Mod - D13] (Eterna round: R96, puzzle: Same State NG 3) | 27.7 | 75.6 | 98.8 | – | – | –
GCUCGACGUAUGGCCUACAUGAGGAUCACCCAUGUGAUUGGGCAGGAUAUCUAGAUGCAGGAUGUAGAGAAGGGCCCGUCGAGC [SameState NG3 #47] (Eterna round: R96, puzzle: Same State NG 3) | 393 | 92 | 230 | – | – | –
